“And” between values parts separate entries of the source, which are not always exact repeats. Identical values can stand only once.
B2: Nbs1 (wild-type) (natural protein, human, UniProt O60934 1-754, looked up)
chain: MWKLLPAAGPAGGEPYRLLTGVEYVVGRKNCAILIENDQSISRNHAVLTANFSVTNLSQTDEIPVLTLKDNSKYGTFVNEEKMQNGFSRTLKSGDGITFGVFGSKFRIEYEPLVACSSCLDVSGKTALNQAILQLGGFTVNNWTEECTHLVMVSVKVTIKTICALICGRPIVKPEYFTEFLKAVESKKQPPQIESFYPPLDEPSIGSKNVDLSGRQERKQIFKGKTFIFLNAKQHKKLSSAVVFGGGEARLITEENEEEHNFFLAPGTCVVDTGITNSQTLIPDCQKKWIQSIMDMLQRQGLRPIPEAEIGLAVIFMTTKNYCDPQGHPSTGLKTTTPGPSLSQGVSVDEKLMPSAPVNTTTYVADTESEQADTWDLSERPKEIKVSKMEQKFRMLSQDAPTVKESCKTSSNNNSMVSNTLAKMRIPNYQLSPTKLPSINKSKDRASQQQQTNSIRNYFQPSTKKRERDEENQEMSSCKSARIETSCSLLEQTQPATPSLWKNKEQHLSENEPVDTNSDNNLFTDTDLKSIVKNSASKSHAAEKLRSNKKREMDDVAIEDEVLEQLFKDTKPELEIDVKVQKQEEDVNVRKRPRMDIETNDTFSDEAVPESSKISQENEIGKKRELKEDSLWSAKEISNNDKLQDDSEMLPKKLLLTEFRSLVIKNSTSRNPSGINDDYGQLKNFKKFKKVTYPGAGKLPHIIGGSDLIAHHARKNTELEEWLRQEMEVQNQHAKEESLADDLFRYNPYLKRRR
notes: wild-type Nbs1, component of the human MRN complex; expressed from transfer vector pTP288 / bacmid pTP291; Used apart from MR (added to MR complexes, coated on PMMA beads); source: Sf21 insect cells, baculovirus, purified

How the values were obtained:
[1] = target: T1, ATM (Homo sapiens, UniProt Q13315, Y2755A); test: kinase assay, GST-p53 Ser-15 phosphorylation, Western blot; type: biochemical; conditions: H2O2-activated ATM without MRN; analog 1 mM; pH 7.5, 5 mM Mg, 30 C
T1 construct: full-length, Flag-tagged and HA-tagged, transiently expressed in human 293T cells, purified as dimer
T1 sequence (Q13315 2-3056 Y2755A): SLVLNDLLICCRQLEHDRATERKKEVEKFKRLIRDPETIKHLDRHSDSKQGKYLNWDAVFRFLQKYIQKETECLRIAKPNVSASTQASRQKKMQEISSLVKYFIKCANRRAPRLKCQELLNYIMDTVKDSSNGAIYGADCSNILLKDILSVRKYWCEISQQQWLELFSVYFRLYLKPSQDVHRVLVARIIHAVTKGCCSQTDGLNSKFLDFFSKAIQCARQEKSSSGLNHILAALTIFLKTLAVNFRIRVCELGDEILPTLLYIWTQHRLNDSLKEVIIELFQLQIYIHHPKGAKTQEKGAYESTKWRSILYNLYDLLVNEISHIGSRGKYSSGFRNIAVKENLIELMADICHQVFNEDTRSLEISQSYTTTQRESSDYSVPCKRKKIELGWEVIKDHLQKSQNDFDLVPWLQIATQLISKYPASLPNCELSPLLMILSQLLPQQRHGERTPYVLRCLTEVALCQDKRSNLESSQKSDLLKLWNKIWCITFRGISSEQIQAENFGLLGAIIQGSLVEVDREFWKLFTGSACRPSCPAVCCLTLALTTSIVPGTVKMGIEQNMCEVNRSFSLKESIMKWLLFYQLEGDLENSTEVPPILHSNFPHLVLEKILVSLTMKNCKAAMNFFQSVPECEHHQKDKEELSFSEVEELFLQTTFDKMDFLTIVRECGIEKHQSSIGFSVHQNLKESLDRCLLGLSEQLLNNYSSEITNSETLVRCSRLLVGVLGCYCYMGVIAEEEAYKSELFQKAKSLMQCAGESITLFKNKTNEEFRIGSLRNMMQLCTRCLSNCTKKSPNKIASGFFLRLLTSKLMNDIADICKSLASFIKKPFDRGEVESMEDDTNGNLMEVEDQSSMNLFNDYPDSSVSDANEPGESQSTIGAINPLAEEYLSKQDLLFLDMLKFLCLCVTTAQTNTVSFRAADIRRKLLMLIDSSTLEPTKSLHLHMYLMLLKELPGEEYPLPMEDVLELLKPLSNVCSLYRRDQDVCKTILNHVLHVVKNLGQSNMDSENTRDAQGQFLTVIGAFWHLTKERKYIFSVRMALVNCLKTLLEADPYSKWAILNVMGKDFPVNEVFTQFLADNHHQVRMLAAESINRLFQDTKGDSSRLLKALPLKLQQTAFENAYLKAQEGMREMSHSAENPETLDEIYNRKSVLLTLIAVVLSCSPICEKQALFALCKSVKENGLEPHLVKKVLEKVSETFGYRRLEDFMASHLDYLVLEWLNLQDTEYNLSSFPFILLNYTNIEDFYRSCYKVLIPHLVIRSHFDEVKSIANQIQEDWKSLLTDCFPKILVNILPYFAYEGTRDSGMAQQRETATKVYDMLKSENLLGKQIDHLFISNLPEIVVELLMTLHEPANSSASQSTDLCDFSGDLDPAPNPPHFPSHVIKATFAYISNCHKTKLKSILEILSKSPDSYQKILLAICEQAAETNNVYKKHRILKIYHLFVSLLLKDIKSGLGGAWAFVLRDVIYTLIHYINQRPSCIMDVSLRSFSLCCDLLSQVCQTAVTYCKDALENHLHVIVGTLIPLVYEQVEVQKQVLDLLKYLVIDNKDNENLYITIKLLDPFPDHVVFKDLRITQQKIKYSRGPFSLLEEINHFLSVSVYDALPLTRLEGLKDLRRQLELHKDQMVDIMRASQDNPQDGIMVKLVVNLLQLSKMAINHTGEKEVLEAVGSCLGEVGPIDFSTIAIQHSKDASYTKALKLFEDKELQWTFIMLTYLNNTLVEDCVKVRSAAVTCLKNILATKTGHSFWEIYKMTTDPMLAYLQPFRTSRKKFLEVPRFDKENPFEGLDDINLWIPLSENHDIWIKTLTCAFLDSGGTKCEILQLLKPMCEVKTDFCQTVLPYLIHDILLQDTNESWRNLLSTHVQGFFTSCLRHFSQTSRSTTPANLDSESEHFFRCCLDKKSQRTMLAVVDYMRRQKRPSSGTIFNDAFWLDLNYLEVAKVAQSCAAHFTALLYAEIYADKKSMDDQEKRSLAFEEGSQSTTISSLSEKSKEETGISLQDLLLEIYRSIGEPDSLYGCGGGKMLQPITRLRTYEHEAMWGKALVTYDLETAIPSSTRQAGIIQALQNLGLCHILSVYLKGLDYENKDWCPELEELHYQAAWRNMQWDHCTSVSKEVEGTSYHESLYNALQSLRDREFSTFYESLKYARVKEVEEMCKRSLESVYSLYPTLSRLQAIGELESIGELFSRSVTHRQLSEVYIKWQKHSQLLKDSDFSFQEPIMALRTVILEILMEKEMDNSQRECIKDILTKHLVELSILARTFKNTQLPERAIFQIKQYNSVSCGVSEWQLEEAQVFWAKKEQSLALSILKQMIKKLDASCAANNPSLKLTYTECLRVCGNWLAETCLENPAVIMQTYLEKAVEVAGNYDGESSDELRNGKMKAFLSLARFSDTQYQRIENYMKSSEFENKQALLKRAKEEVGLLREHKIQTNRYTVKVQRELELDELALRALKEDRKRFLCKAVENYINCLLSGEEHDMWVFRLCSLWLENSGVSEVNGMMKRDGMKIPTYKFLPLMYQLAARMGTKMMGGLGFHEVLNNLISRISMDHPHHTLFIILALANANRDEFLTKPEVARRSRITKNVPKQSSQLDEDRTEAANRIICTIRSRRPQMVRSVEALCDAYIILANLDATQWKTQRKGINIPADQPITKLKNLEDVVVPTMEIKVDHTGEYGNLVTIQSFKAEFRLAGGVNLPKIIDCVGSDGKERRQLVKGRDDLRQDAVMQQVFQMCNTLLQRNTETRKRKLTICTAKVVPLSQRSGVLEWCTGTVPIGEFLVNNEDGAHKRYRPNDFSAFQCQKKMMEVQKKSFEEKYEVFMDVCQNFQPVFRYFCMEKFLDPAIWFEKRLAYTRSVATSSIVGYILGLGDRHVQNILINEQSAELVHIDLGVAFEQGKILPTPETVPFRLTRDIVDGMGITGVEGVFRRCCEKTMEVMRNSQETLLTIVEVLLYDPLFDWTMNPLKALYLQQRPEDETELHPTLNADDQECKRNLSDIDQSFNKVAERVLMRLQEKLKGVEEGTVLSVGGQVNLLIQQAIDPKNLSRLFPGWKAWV

[2] = target: Mre11/Rad50 (MR) complex, wild-type full-length (human) (UniProt P49959); test: scanning force microscopy (SFM); protein alone: 3 nM human MR in 25 mM Tris-HCl pH 8.0, 10% glycerol, 100 mM NaCl, 1 mM DTT; diluted 5-fold in 10 mM HEPES pH 8.0, 20 mM MgCl2, deposited on mica, imaged in air by tapping mode; forms counted by the number of Rad50 coiled-coils
[3] = target: B2; test: KinExA (kinetic exclusion assay); without ATP; 1, 5 and 25 nM MR incubated with 6.1 pM to 400 nM Nbs1 (2-fold dilutions) 1 h at room temperature; free MR captured on Nbs1-coated PMMA beads, detected with anti-Mre11 and Cy5 secondary antibody; PBS; n-Curve Analysis; conditions: both partners purified
[4] = target: B2; test: KinExA (kinetic exclusion assay); in the presence of ATP (concentration not stated); 1, 5 and 25 nM MR incubated with 6.1 pM to 400 nM Nbs1 (2-fold dilutions) 1 h at room temperature; free MR captured on Nbs1-coated PMMA beads, detected with anti-Mre11 and Cy5 secondary antibody; PBS; n-Curve Analysis; conditions: both partners purified
[5] = target: T2, Mre11/Rad50(C2G) complex (Rad50 C681G/C684G) (human, UniProt P49959 1-708; Q92878 1-1312, C681G | C684G); test: -ATP
[6] = target: T3, Mre11/Rad50 (MR) complex, wild-type full-length (human, UniProt P49959 1-708; Q92878 1-1312); test: KinExA (kinetic exclusion assay); without ATP; 1, 5 and 25 nM MR incubated with 6.1 pM to 400 nM Nbs1 (2-fold dilutions) 1 h at room temperature; free MR captured on Nbs1-coated PMMA beads, detected with anti-Mre11 and Cy5 secondary antibody; PBS; n-Curve Analysis; conditions: both partners purified
T3 construct: wild-type human Mre11, transfer vector pTP813 / bacmid pTP814; wild-type human Rad50, transfer vector pTP11; 1312 residues by the printed construct limits; The unit written here is one Mre11 with one Rad50; also called wild-type MR; human MR; source: Sf21 insect cells, coexpression with baculovirus, purified

[7] = target: T2, Mre11/Rad50(C2G) complex (Rad50 …; test: +ATP
[8] = target: T4, Mre11/Rad50(C2G) complex (Rad50 C681G/C684G) (human, UniProt P49959 1-708; Q92878 1-1312, C681G | C684G); test: KinExA (kinetic exclusion assay); in the presence of ATP (concentration not stated); 1, 5 and 25 nM MR incubated with 6.1 pM to 400 nM Nbs1 (2-fold dilutions) 1 h at room temperature; free MR captured on Nbs1-coated PMMA beads, detected with anti-Mre11 and Cy5 secondary antibody; PBS; n-Curve Analysis; conditions: both partners purified
T4 construct: wild-type human Mre11 (pTP813), as the Mre11 chain of m2; human Rad50 with both zinc hook cysteines mutated; made by QuikChange mutagenesis from pTP11 (the wild-type Rad50 of m2); Zinc hook mutant; also called MR(C2G); C2G MR complex; source: Sf21 insect cells, coexpression with baculovirus, purified

[9] = target: T3, Mre11/Rad50 (MR) complex, wild-type …; test: as above; conditions: both partners purified
[10] = target: MR(C2G)N (human, UniProt P49959;Q92878;O60934 1-708;1-1312;1-754, C681G;C684G;Rad50); test: EMSA; 0.5 mM AMP-PNP, 5 mM MgCl2, Nbs1 present; altered mobility and complex formation efficiency vs WT; EMSA (Fig. 6A): 10 nM DNA, 25 mM MOPS pH 7.0, 20 mM Tris pH 8.0, 5 mM MgCl2, 8% glycerol, 80 mM NaCl, 2 mM DTT, 0.5 mM AMP-PNP, temperature not stated; SFM: 25; conditions: protein: recombinant; chain copies: 2;2;1; label: Cy5 at 3' end of TP2109; 41 bp duplex, 4 nt 3' overhang on strand 2, other end blunt
[11] = target: Mre11/Rad50/Nbs1 (MRN) wild-type (human, UniProt P49959;Q92878;O60934 1-708;1-1312;1-754); test: EMSA; 0.5 mM AMP-PNP, 5 mM MgCl2, Nbs1 present, 100-200 nM MR; EMSA (Fig. 6A): 10 nM DNA, 25 mM MOPS pH 7.0, 20 mM Tris pH 8.0, 5 mM MgCl2, 8% glycerol, 80 mM NaCl, 2 mM DTT, 0.5 mM AMP-PNP, temperature not stated; SFM: 25; conditions: protein: recombinant; chain copies: 2;2;2; label: Cy5 at 3' end of TP2109; 41 bp duplex, 4 nt 3' overhang on strand 2, other end blunt

Molecule: O=P(O)(O)OP(=O)(O)OP(=O)(O)OC[C@H]1O[C@@H](n2cnc3c(NCc4ccco4)ncnc32)[C@H](O)[C@@H]1O [N6-(furfuryl)-ATP, N6-furfuryladenosine-5′-O-triphosphate]
- kinase assay, GST-p53 Ser-15 phosphorylation, Western blot [1]: This nucleotide was utilized by Y2755A ATM but not by wild-type ATM

Molecule: Mre11/Rad50 (MR) complex, wild-type full-length, P49959 1-708; Q92878 1-1312
- stoichiometry N [2]: 2 and > 4

B1: Mre11/Rad50(DelCC) complex (Rad50 coiled-coil region replaced with a linker) (complex, human)
chain 1: MSTADALDDENTFKILVATDIHLGFMEKDAVRGNDTFVTLDEILRLAQENEVDFILLGGDLFHENKPSRKTLHTCLELLRKYCMGDRPVQFEILSDQSVNFGFSKFPWVNYQDGNLNISIPVFSIHGNHDDPTGADALCALDILSCAGFVNHFGRSMSVEKIDISPVLLQKGSTKIALYGLGSIPDERLYRMFVNKKVTMLRPKEDENSWFNLFVIHQNRSKHGSTNFIPEQFLDDFIDLVIWGHEHECKIAPTKNEQQLFYISQPGSSVVTSLSPGEAVKKHVGLLRIKGRKMNMHKIPLHTVRQFFMEDIVLANHPDIFNPDNPKVTQAIQSFCLEKIEEMLENAERERLGNSHQPEKPLVRLRVDYSGGFEPFSVLRFSQKFVDRVANPKDIIHFFRHREQKEKTGEEINFGKLITKPSEGTTLRVEDLVKQYFQTAEKNVQLSLLTERGMGEAVQEFVDKEEKDAIEELVKYQLEKTQRFLKERHIDALEDKIDEEVRRFRETRQKNTNEEDDEVREAMTRARALRSQSEESASAFSADDLMSIDLAEQMANDSDDSISAATNKGRGRGRGRRGGRGQNSASRGGSQRGRADTGLETSTRSRNSKTAVSASRNMSIIDAFKSTRQQPSRNVTTKNYSEVIEVDESDVEEDIFPTTSKTDQRWSSTSSSKIMSQSQVSKGVDFESSEDDDDDPFMNTSSLRRNRR
chain 2: MSRIEKMSILGVRSFGIEDKDKQIITFFSPLTILVGPNGAGKTTIIECLKYICTGDFPPGTKGNTFVHDPKVAQETDVRAQIRLQFRDVNGELIAVQRSMVCTQKSKKTEFKTLEGVITRTKHGEKVSLSSKCAEIDREMISSLGVSKAVLNNVIFCHQEDSNWPLSEGKALKQKFDEIFSATRYIKALETLRQVRQTQGQKVKEYQMELKYLKQYPPAAAGGYREMMIVMRTTELVNKDLDIYYKTLDQAIMKFHSMKMEEINKIIRDLWRSTYRGQDIEYIEIRSDADENVSASDKRRNYNYRVVMLKGDTALDMRGRCSAGQKVLASLIIRLALAETFCLNCGIIALDEPTTNLDRENIESLAHALVEIIKSRSQQRNFQLLVITHDEDFVELLGRSEYVEKFYRIKKNIDQCSEIVKCSVSSLGFNVH
notes: wild-type human Mre11 (pTP813), as the Mre11 chain of m2; human Rad50 N terminus, amino acids 1-216; linker peptide between the two Rad50 domains; human Rad50 C terminus, amino acids 1104-1312; The His tag is inferred from the vector name only; also called MR(DelCC); DelCC MR; source: Sf21 insect cells, coexpression with baculovirus (Bac-to-Bac), purified
- Kd [3]: 17.7 nM
- Kd [4]: 0.0503 nM

Molecule: B2
- Kd [5]: 7.3 nM
- Kd [6]: 0.00917 nM
- Kd [7]: 0.11 nM
- fold higher affinity in the presence of ATP than in the absence of ATP [8]: ~70 fold
- Kd [9]: 0.00382 nM

B3: TP2151/TP2109 (dsDNA)
DNA 1: CTTGCATGCCTCAGCTATTCCGGATTATTCATACCGTCCCA
DNA 2: TGGGACGGTATGAATAATCCGGAATAGCTGAGGCATGCAAGTCTA
- binding result [10]: binds
- binding result [11]: binds

Source: article PMC3642328, “Ataxia Telangiectasia-Mutated (ATM) Kinase Activity Is Regulated by ATP-driven Conformational Changes in the Mre11/Rad50/Nbs1 (MRN) Complex*^([image sbox.jpg])” (The Journal of Biological Chemistry, 2013)
